# Measured values taken from patent publication US20170204445A1, “IN VIVO SITE-SPECIFIC PROTEIN TAGGING USING ENGINEERED SORTASE VARIANTS” (priority 2016, published 2017).
# Tests used:
# [1] = target: LPETGSW peptide (Staphylococcus aureus, UniProt Q2FV99, G167E); assay: Transpeptidation of LPETGSW peptide with wild-type SrtA; settings: 15-fold more enzyme (150 μM), 20 hours, 37° C., 25 mM Tris.HCl pH 7.5, 10 mM CaCl2
# [2] = target: T1, SrtA7M (Staphylococcus aureus, UniProt Q2FV99, D160N/D165A/E105K/E108Q/G167E/K190E/K196T/P94R); assay: In vitro conjugation of purified LPETGG-tagged proteins by SrtA7M (ESI-TOF LC-MS); assay type: biochemical; settings: 10 μM SrtA7M, 100 mM Azp or propargylamine, 8 hours, 37° C.
# T1 construct: […]; made in house; host or cells: E. coli
# Experimental: FIG. 3. Transpeptidation of purified proteins. Purified proteins expressed with a C-terminal LPETGG sequence were incubated with 10 μM SrtA7M for 8 hours at 37° C. along with the desired amine. Proteins were then diluted 10-fold with 0.2% formic acid and analyzed by ESI-TOF LC-MS. (A) Maltose binding protein. (B) Sf9 nanobody, and (C) Fibronectin Fn10, all show 80-100% conversion to the desired conjugate.
# FIG. 9. Sortase conjugation time course.
# FIG. 10. In vitro conjugation of sfGFP derivatives. (A) His-sfGFP-srt and (B) sfGFPHis-srt were incubated with 10 μM SrtA7M and 100 mM Azp or propargylamine for 8 hours at 37° C.
# We next determined the ability of SrtA7M to modify purified proteins. We incubated several proteins containing a C terminal LPETGG sequence (srt) with 10 μM enzyme and either 100 mM Azp or propargylamine, followed by quenching with formic acid. […] To define the effective range of reaction conditions, we tested the conjugation of MBP-srt with Azp at different time points and substrate concentrations.
# In vitro conjugation of proteins. Purified MBP-srt, His-sfGFP-srt, Nanobody-His-srt, Glutathione-S-transferase-His-srt, Fibronectin-His-srt, and sfGFP-His-srt were labeled after purification in 100 mM ammonium bicarbonate buffer pH 7.8. […]
Molecule,conversion of LPETGSW peptide [1],conversion / modification of the protein with the amine [2]
"Wild-type SrtA: wild-type Staphylococcus aureus sortase A Δ59, SEQ ID NO: 26 (protein, listed as Homo sapiens) MQAKPQIPKDKSKVAGYIEIPDADIKEPVYPGPATPEQLNRGVSFAEENESLDDQNISIAGHTFIDRPNYQFTNLKAAKKGSMVYFKVGNETRKYKMTSIRDVKPTDVEVLDEQKGKDKQLTLITCDDYNEKTGVWEKRKIFVATEVKLEHHHHHH",modest conversion,
"Fn10-His-srt: engineered fibronectin domain Fn10 with His tag and C terminal LPETGG, SEQ ID NO: 29 (protein, listed as Homo sapiens, His tag, LPETGG) MLVPRGSSDVPRDLEVVAATPTSLLISWDAPAVTVRYYRITYGETGGNSPVQEFTVPGSKSTATISGLKPGVDYTITVYAVTPRGDWNEGSKPISINYRTGKKGKGGHHHHHHLPETGG",,complete conversion
